B1: GST-GABARAP (natural protein, human, UniProt O95166 1-117, looked up)
chain: MKFVYKEEHPFEKRRSEGEKIRKKYPDRVPVIVEKAPKARIGDLDKKKYLVPSDLTVGQFYFLIRKRIHLRAEDALFFFVNNVIPPTSATMGQLYQEHHEEDFFLYIAYSDESVYGL
B2: hEPG5-LIR1 peptide (peptide)
peptide: GSGTWTLVDEG
notes: human EPG5 residues 546-556, holding the LIR1 motif 550WTLV553; source: synthetic peptide (LifeTein)
B3: hEPG5-LIR2 peptide (peptide)
peptide: DEDPETSWILLN
notes: source: synthetic peptide (GenScript)

Columns and labels:
Details in all cases: both partners purified
[1] = target: T1, His-FLAG-hEPG5 (human EPG5, full length, wild type) (human, UniProt Q9HCE0 1-2579); assay: pull-down; co-purification: His-FLAG-hEPG5 bound to Ni-NTA resin, GST-GABARAP applied, washed, eluted with imidazole; 50 mM Na phosphate pH 7.4, 150 mM NaCl, 0.01% TWEEN 20, 5% glycerol; complex seen on SDS-PAGE and by negative stain EM 2D class averages
T1 construct: His-FLAG tag from a modified pFastBacHTB; also called hEPG5^WT; ectopic P-granules autophagy protein 5
T1 sequence (Q9HCE0 whole entry): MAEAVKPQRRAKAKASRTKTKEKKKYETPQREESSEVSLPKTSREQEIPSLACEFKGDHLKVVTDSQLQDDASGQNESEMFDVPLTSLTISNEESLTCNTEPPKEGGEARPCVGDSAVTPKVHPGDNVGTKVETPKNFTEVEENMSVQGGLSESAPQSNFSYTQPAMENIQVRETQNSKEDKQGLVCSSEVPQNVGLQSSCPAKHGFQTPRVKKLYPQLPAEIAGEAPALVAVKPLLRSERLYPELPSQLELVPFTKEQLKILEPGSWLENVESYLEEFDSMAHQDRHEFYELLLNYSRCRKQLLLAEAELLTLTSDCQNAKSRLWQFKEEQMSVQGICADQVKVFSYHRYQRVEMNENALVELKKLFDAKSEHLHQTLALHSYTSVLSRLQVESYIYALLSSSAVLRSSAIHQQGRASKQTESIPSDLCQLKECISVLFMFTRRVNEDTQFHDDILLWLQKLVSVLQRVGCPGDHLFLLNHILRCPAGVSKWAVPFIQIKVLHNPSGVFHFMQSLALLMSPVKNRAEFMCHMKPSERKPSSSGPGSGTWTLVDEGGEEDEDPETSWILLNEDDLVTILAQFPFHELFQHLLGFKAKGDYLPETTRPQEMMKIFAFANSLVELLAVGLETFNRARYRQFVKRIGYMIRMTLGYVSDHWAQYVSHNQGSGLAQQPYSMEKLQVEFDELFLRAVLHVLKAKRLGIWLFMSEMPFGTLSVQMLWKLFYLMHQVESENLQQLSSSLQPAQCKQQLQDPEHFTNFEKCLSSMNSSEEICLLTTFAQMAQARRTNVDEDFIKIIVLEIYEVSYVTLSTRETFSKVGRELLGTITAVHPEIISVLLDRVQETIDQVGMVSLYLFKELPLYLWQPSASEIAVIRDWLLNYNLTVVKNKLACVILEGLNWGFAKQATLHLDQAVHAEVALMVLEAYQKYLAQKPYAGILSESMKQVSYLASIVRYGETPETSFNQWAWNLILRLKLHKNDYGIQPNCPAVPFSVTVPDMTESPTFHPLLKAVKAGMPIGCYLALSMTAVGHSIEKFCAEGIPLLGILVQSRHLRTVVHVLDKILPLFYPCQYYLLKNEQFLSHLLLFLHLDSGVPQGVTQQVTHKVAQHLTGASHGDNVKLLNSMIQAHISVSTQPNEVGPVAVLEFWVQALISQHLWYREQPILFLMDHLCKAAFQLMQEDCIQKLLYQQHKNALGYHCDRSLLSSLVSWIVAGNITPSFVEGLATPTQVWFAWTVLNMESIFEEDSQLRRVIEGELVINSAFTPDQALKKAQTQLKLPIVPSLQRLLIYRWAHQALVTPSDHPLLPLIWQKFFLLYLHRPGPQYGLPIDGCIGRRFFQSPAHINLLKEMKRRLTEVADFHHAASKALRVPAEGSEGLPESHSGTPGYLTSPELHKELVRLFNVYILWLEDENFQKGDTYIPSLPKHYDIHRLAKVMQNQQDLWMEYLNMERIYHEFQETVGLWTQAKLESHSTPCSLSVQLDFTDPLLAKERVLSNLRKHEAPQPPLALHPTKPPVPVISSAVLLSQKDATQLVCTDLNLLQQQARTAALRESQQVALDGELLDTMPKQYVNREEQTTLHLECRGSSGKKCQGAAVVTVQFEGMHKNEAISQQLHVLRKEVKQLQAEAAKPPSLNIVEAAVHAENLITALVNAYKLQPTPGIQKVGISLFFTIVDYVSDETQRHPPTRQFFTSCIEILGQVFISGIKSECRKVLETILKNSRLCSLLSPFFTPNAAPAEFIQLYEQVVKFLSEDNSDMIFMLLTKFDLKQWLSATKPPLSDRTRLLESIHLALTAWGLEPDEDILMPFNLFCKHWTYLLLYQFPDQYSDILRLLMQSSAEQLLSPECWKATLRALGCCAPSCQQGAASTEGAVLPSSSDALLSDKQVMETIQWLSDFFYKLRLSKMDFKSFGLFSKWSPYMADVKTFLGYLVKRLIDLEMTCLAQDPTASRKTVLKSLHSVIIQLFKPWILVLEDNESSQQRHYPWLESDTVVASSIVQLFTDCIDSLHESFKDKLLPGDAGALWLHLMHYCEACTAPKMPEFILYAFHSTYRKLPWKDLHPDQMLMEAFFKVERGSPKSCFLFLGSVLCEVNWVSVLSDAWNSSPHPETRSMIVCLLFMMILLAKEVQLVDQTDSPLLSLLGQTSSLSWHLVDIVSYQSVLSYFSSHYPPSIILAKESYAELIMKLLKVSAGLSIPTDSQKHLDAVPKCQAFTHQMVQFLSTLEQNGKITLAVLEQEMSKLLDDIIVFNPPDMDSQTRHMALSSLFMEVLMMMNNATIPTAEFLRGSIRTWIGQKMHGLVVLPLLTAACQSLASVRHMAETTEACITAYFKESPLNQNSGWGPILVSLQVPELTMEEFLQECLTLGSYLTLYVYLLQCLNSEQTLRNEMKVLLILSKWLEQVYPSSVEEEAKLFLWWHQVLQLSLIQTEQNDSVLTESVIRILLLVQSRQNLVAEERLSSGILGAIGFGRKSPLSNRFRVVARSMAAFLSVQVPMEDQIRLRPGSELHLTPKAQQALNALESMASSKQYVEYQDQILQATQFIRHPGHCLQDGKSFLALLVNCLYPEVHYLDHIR

hEPG5^Δ1770–2579 = target: T2, hEPG5^Δ1770–2579 (human, UniProt Q9HCE0 1-1769); assay: pull-down; GST pull-down: purified GST-LC3A/B/C or GST-GABARAP/L1/L2 bait (200–240 µg) on glutathione resin, purified His-FLAG-hEPG5 or mutant (25–30 µg) as prey; 50 mM Tris pH 8.0, 150 mM NaCl, 5% glycerol, 0.01% Tween20, 0.5 mM DTT, 4 °C; anti-FLAG fluorescence western blot
T2 construct: also called truncated hEPG5 lacking the entire C-terminal region

hEPG5^Δ1–548 = target: T3, hEPG5^Δ1–548 (human, UniProt Q9HCE0 549-2579); assay: as above
T3 construct: also called truncated hEPG5 devoid of the region between the N-terminus and the two LIR motifs
T3 sequence (Q9HCE0 549-2579, stated change not applied): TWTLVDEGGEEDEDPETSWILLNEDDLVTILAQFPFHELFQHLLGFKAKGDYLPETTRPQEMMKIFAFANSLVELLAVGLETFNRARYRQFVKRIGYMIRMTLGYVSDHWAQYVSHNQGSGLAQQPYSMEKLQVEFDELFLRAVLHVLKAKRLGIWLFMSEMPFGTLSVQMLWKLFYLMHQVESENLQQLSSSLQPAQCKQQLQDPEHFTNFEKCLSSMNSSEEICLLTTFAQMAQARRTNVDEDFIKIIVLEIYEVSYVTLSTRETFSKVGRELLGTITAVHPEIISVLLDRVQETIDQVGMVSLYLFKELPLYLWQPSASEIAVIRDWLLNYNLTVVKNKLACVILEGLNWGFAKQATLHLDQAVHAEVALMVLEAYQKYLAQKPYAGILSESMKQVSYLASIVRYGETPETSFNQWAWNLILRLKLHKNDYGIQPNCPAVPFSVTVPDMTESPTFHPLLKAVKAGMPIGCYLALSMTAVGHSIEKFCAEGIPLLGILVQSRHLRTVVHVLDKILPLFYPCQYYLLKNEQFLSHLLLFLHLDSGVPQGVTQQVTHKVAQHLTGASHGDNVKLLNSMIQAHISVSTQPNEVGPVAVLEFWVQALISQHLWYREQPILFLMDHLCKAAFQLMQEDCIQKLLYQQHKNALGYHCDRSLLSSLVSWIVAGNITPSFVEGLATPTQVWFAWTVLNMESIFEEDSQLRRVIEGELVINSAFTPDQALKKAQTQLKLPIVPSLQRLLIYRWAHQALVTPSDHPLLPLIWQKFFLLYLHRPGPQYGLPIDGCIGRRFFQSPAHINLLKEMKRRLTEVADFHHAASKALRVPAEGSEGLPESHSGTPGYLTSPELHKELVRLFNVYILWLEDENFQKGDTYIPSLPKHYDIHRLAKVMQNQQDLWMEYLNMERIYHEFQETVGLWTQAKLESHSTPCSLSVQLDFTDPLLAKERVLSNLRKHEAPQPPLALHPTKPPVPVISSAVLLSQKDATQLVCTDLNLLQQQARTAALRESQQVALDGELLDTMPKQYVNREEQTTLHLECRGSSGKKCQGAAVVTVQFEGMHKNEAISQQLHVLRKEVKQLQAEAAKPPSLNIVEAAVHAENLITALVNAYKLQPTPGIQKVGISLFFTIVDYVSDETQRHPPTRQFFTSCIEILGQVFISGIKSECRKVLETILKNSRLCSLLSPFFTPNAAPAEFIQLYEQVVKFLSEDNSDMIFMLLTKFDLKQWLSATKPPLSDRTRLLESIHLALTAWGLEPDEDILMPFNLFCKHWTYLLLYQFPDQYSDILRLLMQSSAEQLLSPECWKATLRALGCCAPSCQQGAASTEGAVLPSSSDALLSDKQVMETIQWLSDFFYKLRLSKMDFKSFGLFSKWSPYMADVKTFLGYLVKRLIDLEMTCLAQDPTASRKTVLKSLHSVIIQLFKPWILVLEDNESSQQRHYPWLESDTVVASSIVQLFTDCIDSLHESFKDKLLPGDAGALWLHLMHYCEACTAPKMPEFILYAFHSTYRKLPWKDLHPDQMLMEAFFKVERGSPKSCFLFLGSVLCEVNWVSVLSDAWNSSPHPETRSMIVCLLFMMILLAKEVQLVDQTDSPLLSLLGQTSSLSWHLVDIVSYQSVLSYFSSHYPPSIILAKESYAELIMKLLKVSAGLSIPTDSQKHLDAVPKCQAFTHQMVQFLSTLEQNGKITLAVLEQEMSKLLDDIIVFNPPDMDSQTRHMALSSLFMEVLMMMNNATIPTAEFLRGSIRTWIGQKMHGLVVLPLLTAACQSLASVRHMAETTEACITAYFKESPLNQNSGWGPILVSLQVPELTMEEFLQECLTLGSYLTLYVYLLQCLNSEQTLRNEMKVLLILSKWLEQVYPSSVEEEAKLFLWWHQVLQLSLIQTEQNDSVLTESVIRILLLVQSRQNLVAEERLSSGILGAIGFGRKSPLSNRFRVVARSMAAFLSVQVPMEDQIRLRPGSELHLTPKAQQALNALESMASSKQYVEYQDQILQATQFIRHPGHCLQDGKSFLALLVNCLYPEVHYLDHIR

hEPG5^W567A = target: T4, hEPG5^W567A (human, UniProt Q9HCE0 1-2579, W567A); assay: as above
T4 construct: also called LIR2 mutant
T4 sequence (Q9HCE0 whole entry W567A): as the sequence (Q9HCE0 whole entry) above, with W567A counted along it

hEPG5^F794A = target: T5, hEPG5^F794A (human, UniProt Q9HCE0 1-2579, F794A); assay: as above
T5 construct: also called third LIR motif mutant
T5 sequence (Q9HCE0 whole entry F794A): as the sequence (Q9HCE0 whole entry) above, with F794A counted along it

hEPG5^Q336R = target: T6, hEPG5^Q336R (human, UniProt Q9HCE0 1-2579, Q336R); assay: as above
T6 construct: human EPG5, full length, with the Vici syndrome missense mutation Q336R (c.1007A>G); also called Gln336Arg; Vici syndrome mutant
T6 sequence (Q9HCE0 whole entry Q336R): as the sequence (Q9HCE0 whole entry) above, with Q336R counted along it

His-LC3A = His-LC3A (human, UniProt Q9H492 1-121); assay: ITC; 0.6 mM peptide titrated into 0.06 mM His-LC3/GABARAP protein in 20 steps at 25 °C; 50 mM Tris pH 7.0, 25 mM NaCl; one-site binding model
His-GABARAP = His-GABARAP (human, UniProt O95166 1-117); assay: as above
His-GABARAPL1 = His-GABARAPL1 (human, UniProt Q9H0R8 1-117); assay: as above
Chain of His-GABARAPL1 (Q9H0R8 whole entry): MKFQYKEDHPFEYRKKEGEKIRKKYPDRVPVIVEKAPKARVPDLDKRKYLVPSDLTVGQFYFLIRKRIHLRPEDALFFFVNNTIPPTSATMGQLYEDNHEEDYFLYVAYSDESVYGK

His-GABARAPL2 = His-GABARAPL2 (human, UniProt P60520 1-117); assay: as above
Chain of His-GABARAPL2 (P60520 whole entry): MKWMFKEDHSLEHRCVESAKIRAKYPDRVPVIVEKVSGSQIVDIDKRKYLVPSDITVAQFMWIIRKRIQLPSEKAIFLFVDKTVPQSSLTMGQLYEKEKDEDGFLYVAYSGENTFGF

His-LC3B = His-LC3B (human, UniProt Q9GZQ8 1-120); assay: as above

Binder | binding result [1] | binding result (hEPG5^Δ1770–2579) | binding result (hEPG5^Δ1–548) | binding result (hEPG5^W567A) | binding result (hEPG5^F794A) | binding result (hEPG5^Q336R) | fold KD relative to LIR1-GABARAP (His-LC3A) [times] | Kd (His-GABARAP) [µM] | Kd (His-GABARAPL1) [µM] | Kd (His-GABARAPL2) [µM] | Kd (His-LC3A) [µM] | Kd (His-LC3B) [µM]
B1 | binds | binds | binds | binds | binds | binds |  |  |  |  |  | 
B2 |  |  |  |  |  |  | 3 | 7.47 | 8.54 | 11.8 |  | 
B3 |  |  |  |  |  |  |  | 0.16 |  | 0.68 | 1.75 | 4.07
